Data published in publication PMC6124691 (Cell, 2018).

Assays:
EXOSC3 = EXOSC3 (human, UniProt Q9NQT5 1-275); assay: cryo-EM structure
[1] = biological target: T1, Human MTR4 (SKIV2L2, DOB1) (human, UniProt P42285 1-1042); assay: cryo-EM structure
T1 sequence: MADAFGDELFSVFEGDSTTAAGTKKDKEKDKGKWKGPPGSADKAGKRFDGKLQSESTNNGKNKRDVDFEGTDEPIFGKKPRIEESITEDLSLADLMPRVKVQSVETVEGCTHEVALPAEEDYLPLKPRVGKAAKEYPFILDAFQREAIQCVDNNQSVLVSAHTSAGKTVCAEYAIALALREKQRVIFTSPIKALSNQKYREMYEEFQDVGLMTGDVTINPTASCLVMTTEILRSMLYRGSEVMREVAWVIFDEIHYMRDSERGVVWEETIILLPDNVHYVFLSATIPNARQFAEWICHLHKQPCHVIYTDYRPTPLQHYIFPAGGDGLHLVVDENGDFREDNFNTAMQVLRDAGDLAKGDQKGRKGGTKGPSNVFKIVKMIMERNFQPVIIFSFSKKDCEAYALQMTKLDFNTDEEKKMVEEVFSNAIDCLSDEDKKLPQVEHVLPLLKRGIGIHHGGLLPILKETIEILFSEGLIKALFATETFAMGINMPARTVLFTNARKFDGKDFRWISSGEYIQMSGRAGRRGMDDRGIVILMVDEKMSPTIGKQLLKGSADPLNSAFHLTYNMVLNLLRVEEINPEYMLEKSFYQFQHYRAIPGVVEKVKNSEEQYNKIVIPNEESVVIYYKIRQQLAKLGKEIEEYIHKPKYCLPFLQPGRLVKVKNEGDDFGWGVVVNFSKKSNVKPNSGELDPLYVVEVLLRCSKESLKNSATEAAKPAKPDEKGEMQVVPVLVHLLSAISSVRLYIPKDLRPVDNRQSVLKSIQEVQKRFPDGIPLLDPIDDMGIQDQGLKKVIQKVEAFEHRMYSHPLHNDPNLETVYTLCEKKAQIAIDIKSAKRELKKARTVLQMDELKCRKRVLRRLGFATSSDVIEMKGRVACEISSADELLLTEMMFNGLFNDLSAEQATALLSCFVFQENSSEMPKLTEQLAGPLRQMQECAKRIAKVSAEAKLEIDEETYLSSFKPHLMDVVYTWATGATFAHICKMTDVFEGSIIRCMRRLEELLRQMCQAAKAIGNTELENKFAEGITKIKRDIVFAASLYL

EXOSC3, sequence (Q9NQT5 whole entry): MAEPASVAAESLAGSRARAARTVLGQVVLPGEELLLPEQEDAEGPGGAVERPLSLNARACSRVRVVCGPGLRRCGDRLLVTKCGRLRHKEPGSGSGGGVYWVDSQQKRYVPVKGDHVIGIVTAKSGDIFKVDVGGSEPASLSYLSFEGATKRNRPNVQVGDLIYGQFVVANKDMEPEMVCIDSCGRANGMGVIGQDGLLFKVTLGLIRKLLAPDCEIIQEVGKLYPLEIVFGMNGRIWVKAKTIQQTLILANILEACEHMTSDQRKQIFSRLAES

binding result (EXOSC3): binds
binding result [1]: binds
B1: Human M-Phase-Phosphoprotein 6 (MPP6) (natural protein)
chain: MAAERKTRLSKNLLRMKFMQRGLDSETKKQLEEEEKKIISEEHWYLDLPELKEKESFIIEEQSFLLCEDLLYGRMSFRGFNPEVEKLMLQMNAKHKAEEVEDETVELDVSDEEMARRYETLVGTIGKKFARKRDHANYEEDENGDITPIKAKKMFLKPQD
